Results on seven substances are retold here after paper PMC4833381.

The target in assay [1] is HCMV gB of HCMV BADrUL131 (infected cells and extracellular virions) (human cytomegalovirus, BADrUL131) (UniProt P06473). The assay is described as follows: co-IP.
Assay [2] concerns the target HCMV UL130 of HCMV BADrUL131 (extracellular virions) (human cytomegalovirus, BADrUL131) (UniProt P16772). The assay is described as follows: co-IP.
In assay [3] the target is HCMV gB of HCMV BADrUL131 (infected cells and extracellular virions) (human cytomegalovirus, BADrUL131) (UniProt P06473). The assay is described as follows: co-IP; IP-western, repeat with an additional BADrUL131 virion preparation solubilized in 1% NP-40; IP with anti-gB MAb 15H7; gH signal read beside a linear range of gH/gL lysate (Image Studio, Licor).
The target in assay [4] is HCMV gL of HCMV BADrUL131 (extracellular virions) (human cytomegalovirus, BADrUL131) (UniProt P16832). The assay is described as follows: co-IP.
Chain of UniProt P16832 (P16832 31-278): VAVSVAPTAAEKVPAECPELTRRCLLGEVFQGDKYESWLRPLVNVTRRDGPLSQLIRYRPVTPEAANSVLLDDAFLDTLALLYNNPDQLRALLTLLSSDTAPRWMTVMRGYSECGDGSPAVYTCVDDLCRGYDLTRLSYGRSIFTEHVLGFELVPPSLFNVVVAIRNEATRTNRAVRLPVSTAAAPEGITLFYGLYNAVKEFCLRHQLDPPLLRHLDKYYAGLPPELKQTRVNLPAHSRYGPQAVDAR
Assay [5] deals with HCMV gB of clinical strain TR (extracellular virions) (human cytomegalovirus, strain TR). The assay is described as follows: co-IP; IP-western: extracellular virions of HCMV clinical strain TR solubilized in 1% NP-40; IP with anti-gB MAb 15H7; gH signal read beside a linear range of gH/gL lysate (Image Studio, Licor).
The target in assay [6] is HCMV glycoprotein gH, strain TR (Ad vector) (human cytomegalovirus, strain TR). The assay is described as follows: co-IP; IP-western: ARPE-19 cells transduced with Ad vectors, 1% NP-40 lysates; IP with anti-gH MAb 14-4b, anti-gB MAbs 9C1, 13H10, 15H7 or anti-FLAG MAb; protein-A agarose; blots for gB, gH, HSV-1 gH or HSV-1 gD; percent against 5% input (ImageJ).
Assay [7] shares this target. The assay is described as follows: co-IP; pulse-chase: Ad-transduced ARPE-19 cells labeled 15 min with 35S-methionine/cysteine, chased 60, 120 or 240 min; 1% NP-40 extracts; IP with anti-gH MAb 14-4b; SDS-PAGE under reducing conditions.
Assay [8] shares this target. The assay is described as follows: co-IP; IP-western: MRC-5 fibroblasts transduced with Ad vectors, 1% NP-40 lysates; IP with anti-gH MAb 14-4b; blot with anti-gB rabbit serum; percent against 5% input.
In assay [9] the target is HCMV gB with a C-terminal FLAG epitope tag (Ad vector) (human cytomegalovirus) (UniProt P06473). The assay is described as follows: co-IP; IP-western: ARPE-19 cells transduced with Ad vectors, 1% NP-40 lysates; IP with anti-gH MAb 14-4b, anti-gB MAbs 9C1, 13H10, 15H7 or anti-FLAG MAb; protein-A agarose; blots for gB, gH, HSV-1 gH or HSV-1 gD; percent against 5% input (ImageJ).

The target in assay [10] is HCMV glycoprotein gB, lab strain AD169 (Ad vector) (human cytomegalovirus, strain AD169) (UniProt P06473). Described as above.

Consider “HCMV UL130 of HCMV BADrUL131 (extracellular virions) (from UniProt P16772) (natural protein)”, for which the percent of the total co-IP'd with gB in [1] was determined as 2.5%. “HCMV gB of HCMV BADrUL131 (infected cells and extracellular virions) (from UniProt P06473 32-906) (natural protein)” registered a percent of the total gB precipitated with anti-UL130 serum in assay [2] of 1%.

“HCMV gH of HCMV BADrUL131 (infected cells and extracellular virions) (from UniProt P12824 24-743) (natural protein)” displayed a percent of the total gH co-IP'd with gB in assay [3] of 21%. In assay [1], the percent of the total gH/gL co-IP'd with gB was 50%. In addition, the percent of the total gH/gL precipitated with anti-UL130 serum in [2] came to 24%. Besides, the percent of the total gH IP'd with gL antibodies in assay [4] stood at 8%. In assay [5], “HCMV gH of clinical strain TR (extracellular virions) (natural protein)” showed a percent of the total gH co-IP'd with gB of 16%. As to “HCMV gO of HCMV BADrUL131 (extracellular virions) (from UniProt P16750 31-466) (natural protein)”, the percent of the total co-IP'd with gB in assay [1] came to 1%.

Turning to “HCMV glycoprotein gB, lab strain AD169 (Ad vector) (from UniProt P06473 32-906) (natural protein)”, the values for the percent of the total gB co-IP'd with gH/gL in assay [6] and in [8] were 16.5% and 13%, respectively. In addition, the gB complexed with gH/gL, percent of the gH/gL precipitated (pulse sample) in assay [7] amounted to 38%. Regarding “HCMV glycoprotein gH, strain TR (Ad vector) (natural protein)”, the percent of gH/gL co-IP'd with gB MAbs or anti-FLAG MAbs in [9] and in [10] was 1 to 6% in each case.
